Measurements published in patent US20250250357A1 (NANJING ZAIMING PHARMACEUTICAL, published 2025).
Changes are numbered by the printed parent chain.

T1: monkey MSLN on HEK293T-monkey MSLN recombinant cells (monkey)
T1 construct: Full-length precursor as transfected; processing on the cell is not described; also called HEK293-monkey MSLN
T1 chain: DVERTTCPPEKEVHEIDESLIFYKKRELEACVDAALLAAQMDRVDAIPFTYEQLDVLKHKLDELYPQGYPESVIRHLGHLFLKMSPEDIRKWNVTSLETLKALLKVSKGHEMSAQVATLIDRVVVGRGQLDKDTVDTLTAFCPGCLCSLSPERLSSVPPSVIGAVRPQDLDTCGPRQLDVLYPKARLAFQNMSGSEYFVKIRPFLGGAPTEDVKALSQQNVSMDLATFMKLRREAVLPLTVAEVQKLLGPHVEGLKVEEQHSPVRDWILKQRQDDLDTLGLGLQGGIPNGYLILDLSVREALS

B1: F7.33.24-H2 (scFv, not shown: small tags and cut ends)
scFv: EVQLVQSGAEVKKPGASVKVSCKASGYTFTSYWMHWVRQAPGQRLEWMGNVNPSNGGSNYNEKFKNRVTITVDKSASTAYMELSSLRSEDTAVYYCAPHYIGSRPGFAYWGQGTLVTVSSGGGGSGGGGSGGGGSDIVMTQTPLSLSVTPGQPASISCKASQNVGTNIAWYLQKPGQSPQALIYSASYRYSGVPDRFSGSGSGTDFTLKISRVEAEDVGVYYCQQYNSYPLTFGGGTKVEIK
notes: also called S009-F7.33.24 humanized antibody VH1 + VL2
B2: F7.33.24-H3 (scFv, not shown: small tags and cut ends)
scFv: B1 scFv with L172Q
notes: also called S009-F7.33.24 humanized antibody VH1 + VL3
B3: F7.33.24-H12 (scFv, not shown: small tags and cut ends)
scFv: B1 scFv with R44G, G56A, L172Q
notes: also called S009-F7.33.24 humanized antibody VH2a + VL3
B4: F7.33.24-H11 (scFv, not shown: small tags and cut ends)
scFv: B1 scFv with R44G, G56A
notes: also called S009-F7.33.24 humanized antibody VH2a + VL2
B5: F7.33.24-H5 (scFv, not shown: small tags and cut ends)
scFv: B1 scFv with N55S
notes: also called S009-F7.33.24 humanized antibody VH1a + VL2
B6: F7.33.24-H9 (scFv, not shown: small tags and cut ends)
scFv: B1 scFv with R44G, L172Q
notes: also called S009-F7.33.24 humanized antibody VH2 + VL3
B7: F7.33.24-H8 (scFv, not shown: small tags and cut ends)
scFv: B1 scFv with R44G
notes: also called S009-F7.33.24 humanized antibody VH2 + VL2
B8: F7.33.24-H6 (scFv, not shown: small tags and cut ends)
scFv: B1 scFv with N55S, L172Q
notes: also called S009-F7.33.24 humanized antibody VH1a + VL3
B9: F2.23.12-H5 (scFv, not shown: small tags and cut ends)
scFv: EVQLVQSGAEVKKPGASVKVSCKASGYTFTNYWMHWVRQAPGQGLEWMGNINPSNGGPYYNERFRSRVTMTVDKSTSTAYMELSSLRSEDTAVYYCARPYYGSSYGYFDYWGQGTTVTVSSGGGGSGGGGSGGGGSDIQMTQSPSSLSASVGDRVTITCKASQDINKYIAWYQQKPGKAPKLLIHYTSELQPGVPSRFSGSGSGTDFTFTISSLQPEDIATYYCLQYANPLRTFGGGTKVEIK
notes: also called S009-F2.23.12 humanized antibody VH2 + VL1
B10: F2.23.12-H1 (scFv, not shown: small tags and cut ends)
scFv: B9 scFv with A79V
notes: also called S009-F2.23.12 humanized antibody VH1 + VL1
B11: F2.23.12-H13 (scFv, not shown: small tags and cut ends)
scFv: B9 scFv with N55Q
notes: also called S009-F2.23.12 humanized antibody VH4 + VL1
B12: F2.23.12-H16 (scFv, not shown: small tags and cut ends)
scFv: B9 scFv with N55Q, Q174H, T205R, F207Y
notes: also called S009-F2.23.12 humanized antibody VH4 + VL4
B13: F2.23.12-H4 (scFv, not shown: small tags and cut ends)
scFv: B9 scFv with A79V, Q174H, T205R, F207Y
notes: also called S009-F2.23.12 humanized antibody VH1 + VL4
B14: F2.23.12-H8 (scFv, not shown: small tags and cut ends)
scFv: B9 scFv with Q174H, T205R, F207Y
notes: also called S009-F2.23.12 humanized antibody VH2 + VL4
B15: F2.39.3-H5 (scFv, not shown: small tags and cut ends)
scFv: EVQLVQSGAEVKKPGASVKVSCKASGYTFTNYWMHWVRQAPGQGLEWMGNINPSSGDSYYNERFMSRVTMTVDKSTSTAYMELSSLRSEDTAVYYCARSGGLWLAFWGQGTLVTVSSGGGGSGGGGSGGGGSDIVMTQSPDSLAVSLGERATINCKSSQTLLNSVSQNNYLAWYQQKPGQSPKLLIYFASTRESGVPDRFSGSGSGTDFTLTISSLQAEDVAVYYCQQHYRTPYTFGGGTKVEIK
notes: also called S009-F2.39.3 humanized antibody VH2 + VL1
B16: F2.39.3-H2 (scFv, not shown: small tags and cut ends)
scFv: B15 scFv with A79V, K183T
notes: also called S009-F2.39.3 humanized antibody VH1 + VL2
B17: F2.39.3-H9 (scFv, not shown: small tags and cut ends)
scFv: B15 scFv with Q109P
notes: also called S009-F2.39.3 humanized antibody VH3 + VL1
B18: F2.39.3-H1 (scFv, not shown: small tags and cut ends)
scFv: B15 scFv with A79V
notes: also called S009-F2.39.3 humanized antibody VH1 + VL1
B19: F2.39.3-H6 (scFv, not shown: small tags and cut ends)
scFv: B15 scFv with K183T
notes: also called S009-F2.39.3 humanized antibody VH2 + VL2
B20: F2.39.3-H8 (scFv, not shown: small tags and cut ends)
scFv: EVQLVQSGAEVKKPGASVKVSCKASGYTFTNYWMHWVRQAPGQGLEWMGNINPSSGDSYYNERFMSRVTMTVDKSTSTAYMELSSLRSEDTAVYYCARSGGLWLAFWGQGTLVTVSSGGGGSGGGGSGGGGSDIVMTQTPLSLSVTPGQPASISCKSSQTLLNSVSQNNYLAWYQQKPGQSPTLLVYFASTRESGVPDRFSGSGSGTDFTLKISRVEAEDVGVYYCQQHYRTPYTFGGGTKVEIK
notes: also called S009-F2.39.3 humanized antibody VH2 + VL4

Target: T2, human MSLN-R3 on HEK293T-hMSLN-R3 recombinant cells (human, UniProt Q13421 487-606)
T2 construct: the C-terminal limit is uncertain; also called human MSLN-R3 membrane protein
Experiment: FACS, HEK293T-hMSLN-R3 cells

T2 sequence (Q13421 495-614): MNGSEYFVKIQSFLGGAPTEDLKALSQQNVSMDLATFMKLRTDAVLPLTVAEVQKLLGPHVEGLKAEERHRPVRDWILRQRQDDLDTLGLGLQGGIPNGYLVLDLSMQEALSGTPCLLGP

| EC50 | Maximum_MFI | Binder |
| --- | --- | --- |
| 1.21 nM | 1520 MFI | B1 |
| 2.89 nM | 1970 MFI | B2 |
| 1.27 nM | 1330 MFI | B3 |
| 0.42 nM | 1590 MFI | B4 |
| 1.35 nM | 1470 MFI | B5 |
| 1.29 nM | 1470 MFI | B6 |
| 1.52 nM | 1400 MFI | B7 |
| 1.01 nM | 1540 MFI | B8 |

Target: T1, monkey MSLN on HEK293T-monkey MSLN …
Experiment: FACS, HEK293T-monkey MSLN cells

| EC50 | Maximum_MFI | Binder |
| --- | --- | --- |
| 5.86 nM | 17700 MFI | B9 |
| 6.72 nM | 16000 MFI | B10 |
| 10.9 nM | 17600 MFI | B11 |
| 12.3 nM | 16100 MFI | B12 |
| 2.5 nM | 14500 MFI | B13 |
| 5.22 nM | 14700 MFI | B14 |
| 5.64 nM | 22500 MFI | B15 |
| 8.74 nM | 24900 MFI | B16 |
| 7.73 nM | 23300 MFI | B17 |
| 5.31 nM | 24400 MFI | B18 |
| 8.9 nM | 24100 MFI | B19 |
| 12.8 nM | 26000 MFI | B20 |

Target: T3, human MSLN on OVCAR3 tumor cells (human, UniProt Q13421 296-598)
T3 construct: whole, on cells; also called human MSLN protein
Experiment: FACS, OVCAR3 cells

T3 sequence (Q13421 other isoform, or with tags, fused parts or gaps): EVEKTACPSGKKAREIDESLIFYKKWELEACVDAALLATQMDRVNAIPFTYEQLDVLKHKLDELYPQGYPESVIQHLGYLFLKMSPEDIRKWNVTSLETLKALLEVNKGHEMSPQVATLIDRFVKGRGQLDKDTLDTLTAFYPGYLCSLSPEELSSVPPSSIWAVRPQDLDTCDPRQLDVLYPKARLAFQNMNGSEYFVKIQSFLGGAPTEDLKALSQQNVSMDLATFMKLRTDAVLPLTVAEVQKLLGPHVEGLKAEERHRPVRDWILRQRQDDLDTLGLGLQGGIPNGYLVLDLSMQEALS

| EC50 | Maximum_MFI | Binder |
| --- | --- | --- |
| 2.07 nM | 2190 MFI | B1 |
| 2.06 nM | 2370 MFI | B2 |
| 0.92 nM | 2200 MFI | B3 |
| 2.25 nM | 2130 MFI | B4 |
| 2.78 nM | 2420 MFI | B5 |
| 2.6 nM | 2190 MFI | B6 |
| 1.8 nM | 2250 MFI | B7 |
| 1.08 nM | 2300 MFI | B8 |

Target: T1, monkey MSLN on HEK293T-monkey MSLN …
Experiment: FACS, HEK293T-monkey MSLN cells
Remark: another data set of the same source

| EC50 | Maximum_MFI | Binder |
| --- | --- | --- |
| 5.11 nM | 8170 MFI | B1 |
| 5.33 nM | 8310 MFI | B2 |
| 5.07 nM | 7940 MFI | B3 |
| 1.46 nM | 8580 MFI | B4 |
| 4.98 nM | 8430 MFI | B5 |
| 4.08 nM | 8080 MFI | B6 |
| 4.6 nM | 8000 MFI | B7 |
| 3.54 nM | 8440 MFI | B8 |

Target: T2, human MSLN-R3 on HEK293T-hMSLN-R3 …
Experiment: FACS, HEK293T-hMSLN-R3 cells
Remark: another data set of the same source

| EC50 | Maximum_MFI | Binder |
| --- | --- | --- |
| 4.16 nM | 4730 MFI | B9 |
| 4.7 nM | 4720 MFI | B10 |
| 8.3 nM | 4710 MFI | B11 |
| 9.39 nM | 4010 MFI | B12 |
| 2.67 nM | 4760 MFI | B13 |
| 5.57 nM | 4590 MFI | B14 |
| 4.65 nM | 5650 MFI | B15 |
| 6.33 nM | 5970 MFI | B16 |
| 5.66 nM | 5560 MFI | B17 |
| 4.91 nM | 5820 MFI | B18 |
| 6.26 nM | 5780 MFI | B19 |
| 6.91 nM | 5600 MFI | B20 |

Target: T4, human MSLN-hFc recombinant protein (human, UniProt Q13421 296-580)
T4 construct: Captured by an anti-human IgG antibody on the chip; also called human MSLN protein; Acro MSN-H5253
Experiment: SPR (Biacore 8K), MSLN-hFc captured, antibody injected

T4 sequence (Q13421 other isoform, or with tags, fused parts or gaps): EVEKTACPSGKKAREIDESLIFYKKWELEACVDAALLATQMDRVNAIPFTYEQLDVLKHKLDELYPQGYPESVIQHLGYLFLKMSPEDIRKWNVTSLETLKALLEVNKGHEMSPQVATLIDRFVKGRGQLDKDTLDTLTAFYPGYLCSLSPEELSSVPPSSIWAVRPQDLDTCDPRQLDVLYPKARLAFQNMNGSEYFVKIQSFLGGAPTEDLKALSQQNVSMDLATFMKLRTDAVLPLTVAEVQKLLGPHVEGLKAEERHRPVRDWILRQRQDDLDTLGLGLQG

| Kd | koff | kon | Binder |
| --- | --- | --- | --- |
| 7.74 nM | 0.000473 s⁻¹ | 61200 M⁻¹ s⁻¹ | B9 |
| 31.1 nM | 0.000482 s⁻¹ | 15500 M⁻¹ s⁻¹ | B11 |
| 0.985 nM | 3.39e-05 s⁻¹ | 34400 M⁻¹ s⁻¹ | B16 |
| 0.734 nM | 3.19e-05 s⁻¹ | 43500 M⁻¹ s⁻¹ | B17 |
| 1.83 nM | 0.000466 s⁻¹ | 254000 M⁻¹ s⁻¹ | B1 |
| 1.06 nM | 0.000435 s⁻¹ | 409000 M⁻¹ s⁻¹ | B5 |
| 1.32 nM | 0.000529 s⁻¹ | 402000 M⁻¹ s⁻¹ | B7 |

Target: T3, human MSLN on OVCAR3 tumor cells
Experiment: FACS, OVCAR3 cells
Remark: another data set of the same source

| EC50 | Maximum_MFI | Binder |
| --- | --- | --- |
| 11.3 nM | 3340 MFI | B9 |
| 9.56 nM | 3250 MFI | B10 |
| 38.6 nM | 3110 MFI | B11 |
| 80.4 nM | 2920 MFI | B12 |
| 9.9 nM | 3630 MFI | B13 |
| 14.5 nM | 3040 MFI | B14 |
| 6.37 nM | 3140 MFI | B15 |
| 54 nM | 4220 MFI | B16 |
| 17.2 nM | 4300 MFI | B17 |
| 11 nM | 4000 MFI | B18 |
| 40.3 nM | 4160 MFI | B19 |
| 18.6 nM | 4120 MFI | B20 |
